The target in one assay is T1, Human ST2 (human, UniProt Q01638 19-328, limits assumed).
T1 construct: also called human ST2 protein; Interleukin 1 receptor-like 1
T1 sequence (looked up): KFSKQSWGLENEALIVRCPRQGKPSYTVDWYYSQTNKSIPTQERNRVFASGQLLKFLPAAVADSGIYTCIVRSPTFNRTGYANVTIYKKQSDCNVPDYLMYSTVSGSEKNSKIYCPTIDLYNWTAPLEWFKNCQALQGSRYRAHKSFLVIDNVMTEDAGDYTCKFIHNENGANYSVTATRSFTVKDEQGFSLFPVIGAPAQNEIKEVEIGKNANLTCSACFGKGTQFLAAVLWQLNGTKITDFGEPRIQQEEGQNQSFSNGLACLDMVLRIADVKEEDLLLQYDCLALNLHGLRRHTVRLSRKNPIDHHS
The assay can be described thus: SPR (Carterra), antibody immobilized, ST2 analyte, 1:1. The protocol:
(§1) Binding of the reformatted human ST2 antibodies to the human and mouse ST2 proteins was evaluated by surface plasmon resonance (SPR), using a high throughput antibody screening and characterization platform from Carterra (Salt Lake City, Utah).

A further assay addresses T2, Mouse ST2 (mouse, UniProt P14719 27-332, limits assumed).
T2 construct: also called mouse ST2 protein
T2 sequence (looked up): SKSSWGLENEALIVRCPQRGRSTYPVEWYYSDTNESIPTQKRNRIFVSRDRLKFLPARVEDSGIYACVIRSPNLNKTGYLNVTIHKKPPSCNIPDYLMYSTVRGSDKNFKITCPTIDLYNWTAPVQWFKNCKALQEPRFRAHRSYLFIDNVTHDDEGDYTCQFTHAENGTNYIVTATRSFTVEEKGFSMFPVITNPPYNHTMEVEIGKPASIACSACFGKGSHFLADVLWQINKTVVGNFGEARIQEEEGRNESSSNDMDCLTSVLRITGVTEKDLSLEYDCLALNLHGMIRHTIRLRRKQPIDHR
The assay is described as above. The protocol: as §1

Our source for the Kd, koff and kon values is patent US20210403579A1 (DELINIA, published 2021).

For orientation: Kd means a measure of binding affinity in units of concentration. Low readings indicate higher affinity, high ones lower affinity. What is called koff is the rate constant with which the complex falls apart. A low value points to a long-lived complex. A word on the kon: it is the rate constant with which the complex forms. A higher kon goes with faster complex formation.

B1: Human ST2 IgG1 Antibody 109 (antibody, V domains shown)
VH: QVQLVQSGAEVKKPGSSVKVSCKASGYRFTDYYIHWVRQAPGQGLEWMGIIQPTGGGTTYAQKFQGRVTITADESTSTAYMELSSLRSEDTAVYYCARVGATVTKNYYYYYGMDVWGQGTTVTVSS
VL: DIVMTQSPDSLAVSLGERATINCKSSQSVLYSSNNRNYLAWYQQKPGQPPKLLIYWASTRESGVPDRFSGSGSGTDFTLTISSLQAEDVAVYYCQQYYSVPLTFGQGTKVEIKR
notes: IgG1, kappa
In the assay with Human ST2, B1 yielded a Kd of 10 nM, an off-rate (koff) of 0.0061 s⁻¹ and a kon of 600000 M⁻¹ s⁻¹. In the assay with Mouse ST2, the Kd came to 1.1 nM, the koff amounted to 0.0013 s⁻¹ and the kon worked out at 1.1e+06 M⁻¹ s⁻¹.

B2: Human ST2 IgG1 Antibody 104 (antibody, V domains shown)
VH: QVQLVQSGAEVKKPGSSVKVSCKASGYTFTNYAIIWVRQAPGQGLEWMGGIIPVFGTADYTQTFQGRVTITADESTSTAYMELSSLRSEDTAVYYCARVSTNYYDSSGYYAFDYWGQGTLVTVSS
VL: DIQMTQSPSSLSASVGDRVTITCRASQSISSYLNWYQQKPGKAPKLLIYDASSLQSGVPSRFSGSGSGTDFTLTISSLQPEDFATYYCQQTYHTPWTFGQGTKVEIKR
notes: IgG1, kappa
In the assay with Human ST2, B2 registered a Kd of 121 nM, a koff of 0.061 s⁻¹ and a kon of 510000 M⁻¹ s⁻¹. In the assay with Mouse ST2, this molecule returned a dissociation constant Kd of 684 nM, a koff of 0.096 s⁻¹ and a kon of 140000 M⁻¹ s⁻¹.

B3: Human ST2 IgG1 Antibody 105 (antibody, V domains shown)
VH: EVQLLESGGGLVQPGGSLRLSCAASGFTFSSYAMHWVRQAPGKGLEWVAVMSYDGRHEYYADSVKGRFTISRDNSKNTLYLQMNSLRAEDTAVYYCASTDYDIGGYSLPLDYWGQGTLVTVSS
VL: DIQMTQSPSSLSASVGDRVTITCRASQSVSSWLAWYQQKPGKAPKLLIYAASNLQSGVPSRFSGSGSGTDFTLTISSLQPEDFATYYCQQSYDVPWTFGQGTRLEIKR
notes: IgG1, kappa
In the assay with Human ST2, B3 displayed a Kd of 256 nM, a koff of 0.095 s⁻¹ and a kon of 370000 M⁻¹ s⁻¹. Further, in the assay with Mouse ST2, binding was put at a Kd of 172 nM, the off-rate constant (koff) was 0.07 s⁻¹ and the kon amounted to 410000 M⁻¹ s⁻¹.
